Molecular target: tir_eco27 tir (UniProt B7UM99)
Sequence (B7UM99 whole entry): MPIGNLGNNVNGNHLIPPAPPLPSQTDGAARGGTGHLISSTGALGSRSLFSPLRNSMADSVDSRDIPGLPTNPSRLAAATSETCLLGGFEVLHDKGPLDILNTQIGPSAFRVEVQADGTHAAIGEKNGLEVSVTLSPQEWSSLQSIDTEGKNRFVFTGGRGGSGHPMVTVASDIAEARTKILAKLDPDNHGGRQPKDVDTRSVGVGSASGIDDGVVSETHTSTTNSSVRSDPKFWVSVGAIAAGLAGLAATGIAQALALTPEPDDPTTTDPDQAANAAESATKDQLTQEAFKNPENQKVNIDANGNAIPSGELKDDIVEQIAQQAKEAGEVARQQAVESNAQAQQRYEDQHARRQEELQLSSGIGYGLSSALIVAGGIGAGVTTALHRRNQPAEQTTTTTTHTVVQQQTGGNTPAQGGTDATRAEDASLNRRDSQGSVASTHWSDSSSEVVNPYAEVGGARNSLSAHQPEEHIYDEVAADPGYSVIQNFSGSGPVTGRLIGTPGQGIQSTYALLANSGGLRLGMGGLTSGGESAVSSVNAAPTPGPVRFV

Chain of Tyrosine-protein phosphatase non-receptor type 6 (Homo sapiens), P29350 C453S (P29350 whole entry C453S): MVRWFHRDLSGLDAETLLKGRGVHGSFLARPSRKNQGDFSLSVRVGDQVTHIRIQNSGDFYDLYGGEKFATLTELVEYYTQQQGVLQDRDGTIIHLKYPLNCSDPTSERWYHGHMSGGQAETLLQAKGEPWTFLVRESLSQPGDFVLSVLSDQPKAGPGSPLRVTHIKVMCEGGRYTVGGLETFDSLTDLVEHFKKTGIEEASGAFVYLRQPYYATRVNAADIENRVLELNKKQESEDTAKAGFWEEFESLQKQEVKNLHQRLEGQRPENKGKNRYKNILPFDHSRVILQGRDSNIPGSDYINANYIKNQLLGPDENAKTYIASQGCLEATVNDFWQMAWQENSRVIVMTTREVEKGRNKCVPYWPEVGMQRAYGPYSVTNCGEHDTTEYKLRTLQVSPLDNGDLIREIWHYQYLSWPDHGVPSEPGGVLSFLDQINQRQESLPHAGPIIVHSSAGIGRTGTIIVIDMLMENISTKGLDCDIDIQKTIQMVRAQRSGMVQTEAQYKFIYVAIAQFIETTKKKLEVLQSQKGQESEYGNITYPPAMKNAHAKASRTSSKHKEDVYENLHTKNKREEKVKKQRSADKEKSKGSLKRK

Substance: Tyrosine-protein phosphatase non-receptor type 6 (Homo sapiens), P29350 C453S
- effect of a mutation on the interaction: decreasing interaction

From IntAct's records for PubMed 23001144
